Experimental findings from paper PMC2674207 are described below.

The target in this assay is importin-α (PBMCs) (human (endogenous in PBMCs)) (UniProt P52292). Put plainly: co-IP; PBMCs from seven steroid-naive asthma patients after inhaled FP (100 or 500 µg via a spacer) or placebo in vivo, blood taken at 1 and 2 h; densitometry of blots.

In turn, “phospho-GATA-3 (PBMCs) (from UniProt P23771 1-443) (natural protein)” displayed a GATA-3–importin-α association (densitometry, median), 2 h after inhaled FP 500 µg of 879 and a GATA-3–importin-α association (densitometry, median), reference before the decrease of 13500.
